Results as given in patent publication US20240400614A1, “CLEAVABLE PEPTIDES AND METHODS OF USE THEREOF” (Bright Peak Therapeutics AG, priority 2023, published 2024).
Square brackets hold non-standard residues; d marks the D form. Ends that are not written are not given here. Tyr(3-NO2) = N[C@@H](Cc1ccc(O)c([N+](=O)[O-])c1)C(=O)O; Nle = CCCC[C@H](N)C(=O)O; 2Abz = Nc1ccccc1C(=O)O

Legend:
Assay type in all cases: biochemical
[1] = target: uPA (Homo sapiens, UniProt P00749); assay: FRET peptide cleavage efficiency with uPA
[2] = target: T1, MMP-9 (Homo sapiens, UniProt P14780); assay: FRET peptide cleavage efficiency with MMP-9 (standard pH 7.5; also pH 6.5)
T1 construct: purchased SIGMA PF024

[3] = target: T2, MMP-2 (Homo sapiens, UniProt P08253); assay: FRET peptide cleavage efficiency with MMP-2
T2 construct: purchased SIGMA PF023
T2 sequence (P08253 110-660): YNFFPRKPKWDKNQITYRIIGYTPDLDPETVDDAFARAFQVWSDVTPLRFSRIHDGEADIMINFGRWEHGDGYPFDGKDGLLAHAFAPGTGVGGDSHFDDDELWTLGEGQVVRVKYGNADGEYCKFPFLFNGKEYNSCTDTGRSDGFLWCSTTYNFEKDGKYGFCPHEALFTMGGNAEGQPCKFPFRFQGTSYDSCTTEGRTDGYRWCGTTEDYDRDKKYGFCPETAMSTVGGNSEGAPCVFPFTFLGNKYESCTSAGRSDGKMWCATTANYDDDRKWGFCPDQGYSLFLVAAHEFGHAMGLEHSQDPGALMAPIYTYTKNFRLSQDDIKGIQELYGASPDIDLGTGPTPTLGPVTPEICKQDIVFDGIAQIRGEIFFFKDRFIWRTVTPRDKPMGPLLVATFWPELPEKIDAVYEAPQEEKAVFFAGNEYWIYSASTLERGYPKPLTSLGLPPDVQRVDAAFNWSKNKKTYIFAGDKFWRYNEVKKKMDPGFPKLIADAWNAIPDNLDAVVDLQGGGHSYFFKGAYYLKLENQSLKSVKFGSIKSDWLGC

[4] = target: T3, MMP-7 (Homo sapiens, UniProt P09237); assay: FRET peptide cleavage efficiency with MMP-7 (standard pH 7.5; also pH 6.5)
T3 construct: purchased SIGMA CC1059
T3 sequence (P09237 95-267): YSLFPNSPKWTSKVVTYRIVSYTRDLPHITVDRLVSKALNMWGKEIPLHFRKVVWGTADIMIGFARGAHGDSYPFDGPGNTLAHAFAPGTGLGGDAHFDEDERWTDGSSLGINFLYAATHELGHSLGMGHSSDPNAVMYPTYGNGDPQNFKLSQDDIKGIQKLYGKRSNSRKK

[5] = target: T4, matriptase (Homo sapiens, UniProt Q9Y5Y6); assay: FRET peptide cleavage efficiency with matriptase
T4 construct: purchased R&D Systems 3946-SEB
T4 sequence (Q9Y5Y6 615-855 limits assumed): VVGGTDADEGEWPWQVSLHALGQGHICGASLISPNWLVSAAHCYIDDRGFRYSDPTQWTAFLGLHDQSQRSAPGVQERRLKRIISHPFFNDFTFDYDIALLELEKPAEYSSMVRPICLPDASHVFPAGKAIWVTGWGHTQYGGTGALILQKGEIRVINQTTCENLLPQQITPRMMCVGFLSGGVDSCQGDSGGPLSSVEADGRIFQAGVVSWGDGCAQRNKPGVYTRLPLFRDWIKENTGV

[6] = t = 15 min, standard conditions (Table 8)
[7] = t = 60 min, standard conditions (Table 8)
[8] = t = 120 min, standard conditions (Table 8)
[9] = 200 uM linker, 1 ug/ml protease, 37° C., buffer A pH 8.5
[10] = t = 15 min, 200 uM linker, 1 ug/ml protease, 37° C., buffer C pH 7.5
[11] = t = 60 min, 200 uM linker, 1 ug/ml protease, 37° C., buffer C pH 7.5
[12] = t = 120 min, 200 uM linker, 1 ug/ml protease, 37° C., buffer C pH 7.5
[13] = 200 uM linker, 1 ug/ml protease, 37° C., buffer B pH 9.0

T1 sequence (P14780 94-707): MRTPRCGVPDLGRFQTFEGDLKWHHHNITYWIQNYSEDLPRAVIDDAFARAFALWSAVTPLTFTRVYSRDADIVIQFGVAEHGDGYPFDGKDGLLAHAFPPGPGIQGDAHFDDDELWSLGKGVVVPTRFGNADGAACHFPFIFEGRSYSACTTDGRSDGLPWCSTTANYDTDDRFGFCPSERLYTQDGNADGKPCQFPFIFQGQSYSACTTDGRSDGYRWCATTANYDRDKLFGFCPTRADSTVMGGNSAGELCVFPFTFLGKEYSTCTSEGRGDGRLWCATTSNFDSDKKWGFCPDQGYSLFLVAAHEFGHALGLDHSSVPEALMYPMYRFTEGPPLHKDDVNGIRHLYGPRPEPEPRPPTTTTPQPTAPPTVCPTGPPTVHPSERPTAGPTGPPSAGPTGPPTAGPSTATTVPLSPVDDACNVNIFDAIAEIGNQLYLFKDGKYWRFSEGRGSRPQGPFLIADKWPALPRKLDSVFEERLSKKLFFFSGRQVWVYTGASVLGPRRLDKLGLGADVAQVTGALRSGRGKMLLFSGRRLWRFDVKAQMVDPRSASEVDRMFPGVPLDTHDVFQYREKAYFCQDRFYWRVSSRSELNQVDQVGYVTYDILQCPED

Substance	% vcleavage uPA t = 15 min ([1]; standard conditions (Table 8))	% cleavage uPA t = 60 min ([1]; standard conditions (Table 8))	% cleavage uPA t = 120 min ([1]; standard conditions (Table 8))	% cleavage MMP-9 t = 15 min ([2]; t = 15 min (Table 9))	% cleavage MMP-9 t = 15 min [2, 6]	% cleavage MMP-9 t = 60 min ([2]; t = 60 min (Table 9))	% cleavage MMP-9 t = 60 min [2, 7]	% cleavage MMP-9 t = 120 min ([2]; t = 120 min (Table 9))	% cleavage MMP-9 t = 120 min [2, 8]	% cleavage MMP-2 t = 15 min ([3]; t = 15 min (Table 9))	% cleavage MMP-2 t = 60 min ([3]; t = 60 min (Table 9))	% cleavage MMP-2 t = 60 min [3, 7]	% cleavage MMP-2 t = 120 min ([3]; t = 120 min (Table 9))	% cleavage MMP-2 t = 120 min [3, 8]	% cleavage MMP-7 t = 15 min ([4]; t = 15 min (Table 9))	% cleavage MMP-7 t = 15 min [4, 6]	% cleavage MMP-7 t = 60 min ([4]; t = 60 min (Table 9))	% cleavage MMP-7 t = 60 min [4, 7]	% cleavage MMP-7 t = 120 min ([4]; t = 120 min (Table 9))	% cleavage MMP-7 t = 120 min [4, 8]	also measured
RGRKPYMLQG ([2Abz]RGRKPYMLQG[Tyr(3-NO2)]-NH2) [LNK035]	0%	0%	0%	42%	42%	100%	100%	100%	100%	33%	77%	77%	91%	91%	28%	28%	80%	80%	95%	95%	% cleavage Matriptase t = 15 min ([5]; standard conditions (Table 8)): 67%; % cleavage Matriptase t = 60 min ([5]; standard conditions (Table 8)): 100%; % cleavage Matriptase t = 120 min ([5]; standard conditions (Table 8)): 100%
RGRKSPANLVG ([2Abz]RGRKSPANLVG[Tyr(3-NO2)]-NH2) [LNK034]	0%	0%	0%	100%	100%	100%	100%	100%	100%	92%	100%	100%	100%	100%	32%	32%	89%	89%	100%	100%	% cleavage Matriptase t = 15 min ([5]; standard conditions (Table 8)): 100%; % cleavage Matriptase t = 60 min ([5]; standard conditions (Table 8)): 100%; % cleavage Matriptase t = 120 min ([5]; standard conditions (Table 8)): 100%
RGRKSPQPLVD ([2Abz]RGRKSPQPLVD[Tyr(3-NO2)]-NH2) [LNK040]	0%	0%	0%	25%	25%	69%	69%	89%	89%	8%	28%	28%	47%	47%	29%	29%	74%	74%	93%	93%	% cleavage Matriptase t = 15 min ([5]; standard conditions (Table 8)): 100%; % cleavage Matriptase t = 60 min ([5]; standard conditions (Table 8)): 100%; % cleavage Matriptase t = 120 min ([5]; standard conditions (Table 8)): 100%
SGRVLTLRKAPWGLLE ([2Abz]SGRVLTLRKAPWGLLE[Tyr(3-NO2)]-NH2) [LNK004]	–	–	–	–	–	–	–	–	–	–	–	–	–	–	–	–	–	–	–	–	% cleavage uPA t = 15 min [1, 9]: 6%; % cleavage uPA t = 60 min [1, 9]: 16%; % cleavage uPA t = 120 min [1, 9]: 27%; % cleavage MMP-2 t = 15 min [3, 10]: 16%; % cleavage MMP-2 t = 60 min [3, 11]: 50%; % cleavage MMP-2 t = 120 min [3, 12]: 74%; % cleavage Matriptase t = 15 min [5, 13]: 98%; % cleavage Matriptase t = 60 min [5, 13]: 98%; % cleavage Matriptase t = 120 min [5, 13]: 95%
SPLGLAGS ([2Abz]SPLGLAGS[Tyr(3-NO2)]-NH2) [LNK030]	–	–	–	–	–	–	–	–	–	–	–	–	–	–	–	–	–	–	–	–	% cleavage uPA t = 15 min [1, 9]: 0%; % cleavage uPA t = 60 min [1, 9]: 0%; % cleavage uPA t = 120 min [1, 9]: 0%; % cleavage MMP-2 t = 15 min [3, 10]: 67%; % cleavage MMP-2 t = 60 min [3, 11]: 100%; % cleavage MMP-2 t = 120 min [3, 12]: 99%; % cleavage Matriptase t = 15 min [5, 13]: 0%; % cleavage Matriptase t = 60 min [5, 13]: 0%; % cleavage Matriptase t = 120 min [5, 13]: 0%
SSRAVFRKNLGPLGLAG ([2Abz]SSRAVFRKNLGPLGLAG[Tyr(3-NO2)]-NH2) [LNK002]	–	–	–	–	–	–	–	–	–	–	–	–	–	–	–	–	–	–	–	–	% cleavage uPA t = 15 min [1, 9]: 5%; % cleavage uPA t = 60 min [1, 9]: 10%; % cleavage uPA t = 120 min [1, 9]: 18%; % cleavage MMP-2 t = 15 min [3, 10]: 77%; % cleavage MMP-2 t = 60 min [3, 11]: 99%; % cleavage MMP-2 t = 120 min [3, 12]: 98%; % cleavage Matriptase t = 15 min [5, 13]: 89%; % cleavage Matriptase t = 60 min [5, 13]: 85%; % cleavage Matriptase t = 120 min [5, 13]: 84%
SSRGPASNRRLPLGLAG ([2Abz]SSRGPASNRRLPLGLAG[Tyr(3-NO2)]-NH2) [LNK001]	–	–	–	–	–	–	–	–	–	–	–	–	–	–	–	–	–	–	–	–	% cleavage uPA t = 15 min [1, 9]: 4%; % cleavage uPA t = 60 min [1, 9]: 17%; % cleavage uPA t = 120 min [1, 9]: 30%; % cleavage MMP-2 t = 15 min [3, 10]: 54%; % cleavage MMP-2 t = 60 min [3, 11]: 98%; % cleavage MMP-2 t = 120 min [3, 12]: 99%; % cleavage Matriptase t = 15 min [5, 13]: 77%; % cleavage Matriptase t = 60 min [5, 13]: 99%; % cleavage Matriptase t = 120 min [5, 13]: 99%
SSRVFRKPANLAG ([2Abz]SSRVFRKPANLAG[Tyr(3-NO2)]-NH2) [LNK019]	–	–	–	–	–	–	–	–	–	–	–	–	–	–	–	–	–	–	–	–	% cleavage uPA t = 15 min [1, 9]: 4%; % cleavage uPA t = 60 min [1, 9]: 6%; % cleavage uPA t = 120 min [1, 9]: 10%; % cleavage MMP-2 t = 15 min [3, 10]: 84%; % cleavage MMP-2 t = 60 min [3, 11]: 99%; % cleavage MMP-2 t = 120 min [3, 12]: 99%; % cleavage Matriptase t = 15 min [5, 13]: 90%; % cleavage Matriptase t = 60 min [5, 13]: 97%; % cleavage Matriptase t = 120 min [5, 13]: 97%

Second part, led by results:

% vcleavage uPA t = 15 min ([1]; standard conditions (Table 8))	% cleavage uPA t = 60 min ([1]; standard conditions (Table 8))	% cleavage uPA t = 120 min ([1]; standard conditions (Table 8))	% cleavage MMP-9 t = 15 min ([2]; t = 15 min (Table 9))	% cleavage MMP-9 t = 15 min [2, 6]	% cleavage MMP-9 t = 60 min ([2]; t = 60 min (Table 9))	% cleavage MMP-9 t = 60 min [2, 7]	% cleavage MMP-9 t = 120 min ([2]; t = 120 min (Table 9))	% cleavage MMP-9 t = 120 min [2, 8]	% cleavage MMP-2 t = 15 min ([3]; t = 15 min (Table 9))	% cleavage MMP-2 t = 60 min ([3]; t = 60 min (Table 9))	% cleavage MMP-2 t = 60 min [3, 7]	% cleavage MMP-2 t = 120 min ([3]; t = 120 min (Table 9))	% cleavage MMP-2 t = 120 min [3, 8]	% cleavage MMP-7 t = 15 min ([4]; t = 15 min (Table 9))	% cleavage MMP-7 t = 15 min [4, 6]	% cleavage MMP-7 t = 60 min ([4]; t = 60 min (Table 9))	% cleavage MMP-7 t = 60 min [4, 7]	% cleavage MMP-7 t = 120 min ([4]; t = 120 min (Table 9))	% cleavage MMP-7 t = 120 min [4, 8]	Substance	also measured
0%	0%	0%	25%	25%	74%	74%	94%	94%	10%	38%	38%	61%	61%	35%	35%	80%	80%	96%	96%	RGRKPQPLVD ([2Abz]RGRKPQPLVD[Tyr(3-NO2)]-NH2) [LNK039]	% cleavage Matriptase t = 15 min ([5]; standard conditions (Table 8)): 77%; % cleavage Matriptase t = 60 min ([5]; standard conditions (Table 8)): 100%; % cleavage Matriptase t = 120 min ([5]; standard conditions (Table 8)): 100%
0%	0%	0%	28%	28%	87%	87%	100%	100%	27%	70%	70%	88%	88%	34%	34%	88%	88%	100%	100%	RGRKPY-Nle-LQG ([2Abz]RGRKPY[Nle]LQG[Tyr(3-NO2)]-NH2) [LNK036]	% cleavage Matriptase t = 15 min ([5]; standard conditions (Table 8)): 76%; % cleavage Matriptase t = 60 min ([5]; standard conditions (Table 8)): 100%; % cleavage Matriptase t = 120 min ([5]; standard conditions (Table 8)): 100%
